Consider two molecules from article PMC8458281, “Computational modeling and experimental validation of the EPI-X4/CXCR4 complex allows rational design of small peptide antagonists” (Communications Biology, 2021).

For one data set, the system named is zebrafish embryos. Put plainly: Toxicity assay in zebrafish embryos. It is filed as in vivo. To be noted: embryos exposed 24 h from 24 hpf to 3, 30 and 300 µM in E3; scored at 48 hpf for cytotoxicity, developmental toxicity, cardiotoxicity, neurotoxicity; two independent assays, 10 × 3 embryos each. Here is the method:
Finally, we evaluated the toxicity of EPI-X4 JM#21 408–414-NH2 in zebrafish embryos, a widely used in vivo model for toxicity studies. We exposed embryos for 24 h starting at 24 h post fertilization (hpf), when most organ systems have already developed and are functional. Transparency of the embryos allows for evaluation by light microscopy not only of mortality, but also of sublethal cytotoxicity (necrosis, lysis), developmental toxicity (developmental delay, malformations), or toxicity affecting specific organ systems, in particular cardiotoxicity (heart edema, reduced circulation), and neurotoxicity (reduced touch escape response).
Wild-type zebrafish embryos were dechorionated at 24 hpf using digestion with 1 mg/ml pronase (Sigma) in E3 medium ([…]). […] At 48 hpf (after 24 h of incubation) embryos were scored in a stereomicroscope for signs of cytotoxicity (lysis and/or necrosis), developmental toxicity (delay and/or malformations), or cardiotoxicity (heart edema and/or reduced or absent circulation). Each embryo was also touched with a needle, and reduced or absent touch responses (escape movements) were evaluated as signs of neurotoxicity if and only if no signs of cytotoxicity were present in the same embryo. […]
T2: severe damage so that other phenotypes cannot be assessed (L3, L4, Nec2)

Data set [1] addresses T1, C-X-C motif chemokine receptor 4 (CXCR4) on SupT1 cells (human (endogenous in SupT1), UniProt P61073 1-352).
T1 construct: CXCR4 as expressed on SupT1 cells; source: endogenous, on SupT1 cells
Put plainly: flow cytometry on cells; 12G5 antibody competition on SupT1 cells; peptides in PBS with APC-conjugated 12G5 at a concentration close to its EC50, 4 °C, 2 h; MFI normalized to PBS control; IC50 by nonlinear regression. To be noted: one partner purified. A general note: In flow cytometry, cells or beads pass a laser one at a time.

The target of the next data set is CXCR4 D97E (human, UniProt P61073-1 1-352, D97E). Put plainly: FACS.
The target of the next data set is CXCR4 D97S (human, UniProt P61073-1 1-352, D97S). Put plainly: FACS.
A further data set deals with CXCR4 E288D (human, UniProt P61073-1 1-352, E288 to Asp). Put plainly: FACS.
The next data set addresses CXCR4 V112A + L41A (human, UniProt P61073-1 1-352, L41A | V112A). Put plainly: FACS.
A further data set has as its target CXCR4 D262A (human, UniProt P61073-1 1-352, D262A). Put plainly: FACS.
A further data set concerns the target CXCR4 V112L (human, UniProt P61073-1 1-352, V112L). Put plainly: FACS.
In another data set the target is CXCR4 D97Q (human, UniProt P61073-1 1-352, D97Q). Put plainly: FACS.
Another data set addresses CXCR4 V112A (human, UniProt P61073-1 1-352, V112A). Put plainly: FACS.
The next data set deals with CXCR4 D97T (human, UniProt P61073-1 1-352, D97T). Put plainly: FACS.
For another data set, the target named is CXCR4 D97N (human, UniProt P61073-1 1-352, D97N). Put plainly: FACS.
The next data set addresses CXCR4 E288A (human, UniProt P61073-1 1-352, E288 to Ala). Put plainly: FACS.
Another data set has as its target CXCR4 L41A (human, UniProt P61073-1 1-352, L41A). Put plainly: FACS.
Another data set has as its target CXCR4 D187E (human, UniProt P61073-1 1-352, D187E). Put plainly: FACS.
A further data set has as its target CXCR4 D97E + V112A (human, UniProt P61073-1 1-352, D97E | V112A). Put plainly: FACS.
For data set [2], the target named is T2, CXCR4 wt (transfected 293T cells) (human, UniProt P61073-1 1-352).
T2 chain: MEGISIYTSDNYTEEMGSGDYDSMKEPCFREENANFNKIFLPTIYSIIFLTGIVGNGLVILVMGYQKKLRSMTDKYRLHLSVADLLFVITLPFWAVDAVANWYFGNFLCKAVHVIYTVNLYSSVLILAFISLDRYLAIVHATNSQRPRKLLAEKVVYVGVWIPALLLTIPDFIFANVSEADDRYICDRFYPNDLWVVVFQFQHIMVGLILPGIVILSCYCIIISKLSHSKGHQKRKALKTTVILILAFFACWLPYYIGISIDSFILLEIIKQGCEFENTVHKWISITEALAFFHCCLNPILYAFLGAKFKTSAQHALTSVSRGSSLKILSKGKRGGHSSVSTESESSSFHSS
Put plainly: FACS.

Data set [3] addresses CXCR4 D97E + V112A + L41A (human, UniProt P61073-1 1-352, L41A | D97E | V112A). Put plainly: FACS.
The next data set addresses CXCR4 D97E + V112L (human, UniProt P61073-1 1-352, D97E | V112L). Put plainly: FACS.
The next data set addresses CXCR4 E277A (human, UniProt P61073-1 1-352, E277A). Put plainly: FACS.

No end group written: not given here.

Sequence of CXCR4 V112A + L41A (P61073 whole entry L41A/V112A): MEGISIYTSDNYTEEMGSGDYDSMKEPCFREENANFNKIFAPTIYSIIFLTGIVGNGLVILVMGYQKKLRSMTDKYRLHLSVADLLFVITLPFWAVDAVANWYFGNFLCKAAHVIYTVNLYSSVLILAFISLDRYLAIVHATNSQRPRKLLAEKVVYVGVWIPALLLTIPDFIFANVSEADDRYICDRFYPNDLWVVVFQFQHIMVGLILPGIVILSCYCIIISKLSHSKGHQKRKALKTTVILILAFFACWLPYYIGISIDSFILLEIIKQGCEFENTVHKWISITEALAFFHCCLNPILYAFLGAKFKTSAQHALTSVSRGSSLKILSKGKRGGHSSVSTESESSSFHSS
Sequence of CXCR4 V112L (P61073 whole entry V112L): as the sequence (P61073 whole entry L41A/V112A) above, with A41L, A112L counted along it
Sequence of CXCR4 E277A (P61073 whole entry E277A): as the sequence (P61073 whole entry L41A/V112A) above, with A41L, A112V, E277A counted along it
Sequence of CXCR4 E288D (P61073 whole entry E288D): as the sequence (P61073 whole entry L41A/V112A) above, with A41L, A112V, E288D counted along it
Sequence of CXCR4 D187E (P61073 whole entry D187E): as the sequence (P61073 whole entry L41A/V112A) above, with A41L, A112V, D187E counted along it
Sequence of CXCR4 D97E + V112L (P61073 whole entry D97E/V112L): as the sequence (P61073 whole entry L41A/V112A) above, with A41L, D97E, A112L counted along it
Sequence of CXCR4 D97E + V112A (P61073 whole entry D97E/V112A): as the sequence (P61073 whole entry L41A/V112A) above, with A41L, D97E counted along it
Sequence of CXCR4 D97E (P61073 whole entry D97E): as the sequence (P61073 whole entry L41A/V112A) above, with A41L, D97E, A112V counted along it
Sequence of CXCR4 L41A (P61073 whole entry L41A): as the sequence (P61073 whole entry L41A/V112A) above, with A112V counted along it

As to ILRWSRK-NH2 [JM#21 408–414-NH2], the “toxicity in zebrafish embryos” value with zebrafish embryos was “nontoxic even at high concentrations”.

B1: WSC02 (peptide)
peptide: IVRWSKKVPCVS
notes: also called EPI-X4 WSC02; source: synthetic peptide (Fmoc solid-phase synthesis, HPLC-purified)
As to B1, the IC50 (commonly the midpoint of a concentration-inhibition curve) in data set [1] was determined as 0.539 µM; with CXCR4 D97E, 9.54 µM; in the data set with CXCR4 D97S, 20.4 µM; with CXCR4 E288D it was 83.2 µM; in the data set with CXCR4 V112A + L41A it was 4.7 µM; with CXCR4 D262A it was 0.52 µM. The IC50 in the data set with CXCR4 V112L is 0.42 µM; in the data set with CXCR4 D97Q, above 100 µM; with CXCR4 V112A, 0.67 µM; in the data set with CXCR4 D97T, 35.4 µM; in the data set with CXCR4 D97N it was 527 µM; with CXCR4 E288A, above 100 µM. In addition, the IC50 amounted to 1.71 µM in the data set with CXCR4 L41A; 0.49 µM with CXCR4 D187E; 1.69 µM in the data set with CXCR4 D97E + V112A; 1.13 µM in [2]; 5.77 µM in data set [3]; 2 µM with CXCR4 D97E + V112L. Also, in the data set with CXCR4 E277A, it took 0.77 µM to reach half-maximal inhibition (IC50).
